Measurements as given in patent US20120076762A1, “INDUCED PLURIPOTENT STEM CELL GENERATION USING TWO FACTORS AND P53 INACTIVATION” (THE SALK INSTITUTE FOR BIOLOGICAL STUDIES, priority 2009, published 2012).

Assays:
[1] = tested on: Mouse embryonic fibroblasts (MEFs); assay: Reprogramming of mouse embryonic fibroblasts to iPS cells (Nanog-positive colonies); assay type: cell-based; details: MEFs; for Reprogramming efficiency (Nanog-positive colonies / infected cells): 3F (Oct4/Sox2/Klf4), d12-14, error = s.d.; for Direction and grade of change in reprogramming efficiency (arrows): 3F, vs control
Text: VSV-G viruses were produced in HEK293T cells. For pMX-based and pMSCV-based retroviruses, vectors were transfected using CaPO4 or lipofectamin, following the manufacturers' directions. One day after transfection, culture medium was changed to new medium. For lentivirus, pBOBI-based^34 or pLVTHM-based^37 vectors were transfected by Lipofectamine™ 2000 (Invitrogen) according to the manufacturer's protocol. Six hours after transfection, the DNA-lipofectamine-complex was removed and the medium was replaced the next day. Two days after transfection, the supernatant containing viruses was collected and filtered through a 0.45 μm filter. Mouse iPS cells were induced as previously described^38,39. Briefly, mouse embryonic fibroblasts (passage 3 to 5) were infected (day 0) with pMX-based retroviruses together with pLVTHM-based lentivirus for shRNAs or pBOBI-based lentivirus for Bcl-2. On day 2, cells were passed onto new gelatin-coated plates. Medium was changed every 2 days. On day 12 to 14, cells were fixed for immunofluorescence study. For the Nutlin3a experiments, cells were treated starting from day 4. Reprogramming of human embryonic fibroblasts (IMR90) was done as previously described^2′^3. Briefly, IMR90 fibroblasts (passage 7 to 9) were infected (day 0) with pMSCV-based retroviruses+pLVTHM-based lentiviruses for p53 shRNA. On day 4 or 5, cells were passed onto feeder MEFs. Medium was changed every day. Around 3 weeks after infection, cells were fixed for immunofluorescence studies. Reprogramming of human primary keratinocytes was carried out essentially as described^6. Cells were co-infected with retroviral supernatants containing 3 or 4 reprogramming factors and p53-DD or GFP at a 1:2 ratio. To assess the reprogramming efficiency, cells were trypsinized 3 days after retroviral infection and 10^4 cells were plated onto 6-cm tissue culture dishes on top of irradiated human foreskin fibroblasts with hES cell medium.
The number of Nanog-positive colonies was calculated after immunostaining at d12-14. The total number of Nanog-positive colonies was divided by the number of infected cells. Error numbers indicate s.d. The term “s.d.” refers in the customary sense to standard deviation. The term “s.e.” refers in the customary sense to standard error. Student's t-tests were performed for statistical analysis. p=0.007 (p53-shRNA vs mock, n=4 in each), p=0.0006 (p53−/− vs WT, n=3 in each), p=0.009 (p21-shRNA vs mock, n=4 in each), p=0.0005 (Arf-shRNA vs mock, n=3 in each), p=0.028 (Arf/Ink4a-shRNA vs mock, n=3 in each), p=0.010 (Ctl(solvent) vs Nutlin-3(10 μM), n=3 in each), p=0.045 (3SA/3SA vs WT, n=3 in each), p=0.022 (Bcl-2 vs mock, n=4 in each), and p=0.012 (c-Myc versus mock, n=4 in each).

MEFs = assay: TUNEL staining of apoptotic cells in factor-infected MEFs; assay type: cell-based, mouse; details: 2-F, 3-F and 4-F experiments, five days after infection
Experimental: FIG. 13: Bcl-2 increased the efficiency of reprogramming. (FIG. 13a) MEFs were infected by retroviruses encoding 4 transcription factors (Oct4/Sox2/Klf4/c-Myc), 3 factors (Oct4/Sox2/Klf4), or 2 factors (Oct4/Sox2) with lentivirus encoding Bcl-2. Five days after infection, TUNEL-staining was performed. The percentage of apoptotic cells was analyzed (using at least five independent panels) and represented graphically. Error bars indicate s.d. (FIG. 13b) MEFs were infected by retroviruses encoding 3 factors (Oct4/Sox2/Klf4) in combination with mock or Bcl-2 expressing lentivirus. The fold change in the number of Nanog-positive colonies compared to mock (n=3) is shown. Error bars indicate s.d (n=3).

B1: c-Myc: c-Myc retrovirus (pMXs) added to Oct4/Sox2/Klf4 as fourth factor (protein, UniProt P01108 1-454, looked up)
Myc proto-oncogene protein: MDFLWALETPQTATTMPLNVNFTNRNYDLDYDSVQPYFICDEEENFYHQQQQSELQPPAPSEDIWKKFELLPTPPLSPSRRSGLCSPSYVAVATSFSPREDDDGGGGNFSTADQLEMMTELLGGDMVNQSFICDPDDETFIKNIIIQDCMWSGFSAAAKLVSEKLASYQAARKDSTSLSPARGHSVCSTSSLYLQDLTAAASECIDPSVVFPYPLNDSSSPKSCTSSDSTAFSPSSDSLLSSESSPRASPEPLVLHEETPPTTSSDSEEEQEDEEEIDVVSVEKRQTPAKRSESGSSPSRGHSKPPHSPLVLKRCHVSTHQHNYAAPPSTRKDYPAAKRAKLDSGRVLKQISNNRKCSSPRSSDTEENDKRRTHNVLERQRRNELKRSFFALRDQIPELENNEKAPKVVILKKATAYILSIQADEHKLTSEKDLLRKRREQLKHKLEQLRNSGA
B1 was tested, and the “Reprogramming efficiency (Nanog-positive colonies / infected cells)” value [1] was 0.517 ± 0.264% vs 0.114 + 0.054% and the “Direction and grade of change in reprogramming efficiency (arrows)” value [1] was “↑↑”.

B2: Bcl-2: mouse Bcl-2 cDNA overexpressed from HIV pBOBI lentiviral vector; BAX antagonist (protein, UniProt P10417 1-236, looked up)
Apoptosis regulator Bcl-2: MAQAGRTGYDNREIVMKYIHYKLSQRGYEWDAGDADAAPLGAAPTPGIFSFQPESNPMPAVHRDMAARTSPLRPLVATAGPALSPVPPVVHLTLRRAGDDFSRRYRRDFAEMSSQLHLTPFTARGRFATVVEELFRDGVNWGRIVAFFEFGGVMCVESVNREMSPLVDNIALWMTEYLNRHLHTWIQDNGGWDAFVELYGPSMRPLFDFSWLSLKTLLSLALVGACITLGAYLGHK
B2 was tested, and the “Effect on apoptosis (TUNEL)” value (MEFs) was “suppressed apoptosis”, the “Fold increase in reprogramming / Nanog-positive colony formation vs control” value ([1]; 3-F) was 4 fold and the “Reprogramming efficiency (Nanog-positive colonies / infected cells)” value [1] was 0.268 ± 0.117% vs 0.100 + 0.062%. For the same molecule, the “Direction and grade of change in reprogramming efficiency (arrows)” value [1] was “↑↑”.
